# Assay results published in article PMC12297413.
# Biological target: HgcR (D-2-hydroxyglutarate catabolic regulator), PP4494 (Pseudomonas putida KT2440)
# Assay: SEC
substance,measurement,value
"HgcR (D-2-hydroxyglutarate catabolic regulator), PP4494 (natural protein)",stoichiometry N,2
